In patent US20240059762A1 (SINGLE CELL TECHNOLOGY, published 2024):

B1: SCT-Pa19 (antibody, mouse IgG1, kappa, V domains shown)
VH: QVQLQQPGAELVRPGSSVKLSCKASGYTFTNYWMLWVKQRPMQGLEWIGSIDPSDSETHYNQKFKDKATLTVDKSSSTAYMRLGSLTSEDSAVYYCARDSYGWYFDVWGTGTTVTVSS
VL: DIVMTQSQKFMSTSVGDRVSVTCKASQNVGSNVAWYQQKSGQSPKALIYSASYRYSGVPDRFTGSGYGTDFTLTISNVQSEDLAEYFCQQYNNYPLTFGAGTKLELKR
B2: SCT-Pa16 (antibody, mouse IgG1, kappa, V domains shown)
VH: QVQLQQPGTELVKPGASVKLSCKASGYTFTSYWMHWVKQRPGQGLEWIGSVNPSNGGANYNEKFKNKATLTVDKSSSTAYMQLSSLTSEDSAVYYCARRNGFPYYFDYWGQGTTLTVSS
VL: DIVMTQSQKFVSTSVGDRVSVTCKASQNVGTNVVWYQQKPGQSPKPLIYSASYRYSGVPDRFTGSGSGTDFTLTISNVQSEDLADYFCHQYNSSPLTFGVGTKLELKR
B3: SCT-Pa07 (antibody, mouse IgG1, kappa, V domains shown)
VH: EVQLQQSGPELVKPGDSVKMSCKASGYTFTDYYMDWVKQSHGKSLEWIGYIYTNNGDTNYNQKFKGKATLTVDKSSSTAYMELHSLTSEDSAVYYCASLYYSNFFDSWGQGTTLTVSS
VL: ENVLTQSPAIMSATLGEKVTVSCRARSNVKYMYWYQQKSGASPKLLIYYTSNLASGVPARFSGSGSGTSYSLTISSVEAEDAATYYCQQFTSSPFTFGSGTKLEIKR
B4: SCT-Pa14 (antibody, mouse IgG1, kappa, V domains shown)
VH: EVQLQQSGAELVSPGASVKLSCTASGFNIKDDYMHWVKQRPEQGLEWIGRIDPANGNTKYAPKFQDKATITADTSSNTAYLQLSSLTSEDTAVYYCFYSFYIPYTMDFWGQGTSVTVSS
VL: ENVLTQSPAIMSATLGEKVTMSCRASSNVKYMYWYQQKSGASPKLWIYYTSNLTSGVPARFSGSGSGTSYSLTISSVEAEDAATYYCQQFTSSPYTFGSGTKLEIKR
B5: SCT-Pa02 (antibody, mouse IgG1, kappa, V domains shown)
VH: QMQLKQSGPGLVQPSQSLSITCTVSGFSLTSYGVHWVRQSPEKGLEWLGVIWSGGGTDYNAAFISRLSISKDNSKSQVFLKMSSLQTDDTAIYYCARGAYYSLDYWGQGTTLTVSS
VL: DIVLTQSPASLAVSLGQRATISCRASESVDYDGDNYMNWYQQKPGQSPKLLIYATSNLESRIPARFSGSGSGTEFTLNIHPVEEEDAATYYCLQSYDVPYTFGSGTKLEMKR
B6: SCT-Pa11 (antibody, mouse IgG1, kappa, V domains shown)
VH: EVQLQQSGPELVKPGASVKMSCKASGYTFTSYVIHWVKQKPGQGLEWIGYINPYNDGTEYNEKFKGKATLTSDKSSSTAYMELSSLTSEDSAVYYCSRDDYNNRFAYWGPGTLVTVSA
VL: DIQMTQSPASLSASVGETVTITCRPSENIYSYLAWYQQKQGKSPQLLVYNAKTLVEGVPSRFSGSGSGTQFSLKINSVQPEDCGSYYCLHHFGTPWTFGGGTILEIKR
B7: SCT-Pa08 (antibody, mouse IgG1, kappa, V domains shown)
VH: QVQLHQSGAELVKPGASVKLSCKASGYTFTEYSIHWVKQRSGQDLEWIGWFNPGTGSIKYNEKFKDKATLTADKSSSTVYMELSRLTSEDSAVYFCARHGGRWVIQWNFDVWGTGTTVTVSS
VL: DIVMSQSPSSLAVSVGEKVTMSCKSSQNLLYSSNQKNFLAWYQQRPGQSPKLLIYWASTRESGVPDRFTGSGTGTDFTLTISSVKAEDLAVYYCQQYYRYPFTFGSGTKLEIKR
B8: SCT-Pa06 (antibody, mouse IgG1, kappa, V domains shown)
VH: QVTLKESGPGILQPSQTLSLTCSFSGFSLSTYGMGVGWIRQPSGKGLEWLANIWWNDDKNYNSALKSRLTISKDTSNNQLFLRISSVDTADTATYFCAQIPAYYSNSWFAYWGHGTLVTVSA
VL: ENVLTQSPAIMAASPGEKVTMTCSASSSVSSGNFHWYQQKPGTSPKLWIYRTSNLASGVPARFSGSGSGTSYSLTISSMEAEDAATYYCQQWSGYPYTFGSGTKLKIKR
B9: SCT-Pa17 (antibody, mouse IgG1, kappa, V domains shown)
VH: QVQLQQPGAELVKPGASVKLSCKASGYAFTSSWINWVKRRPGQGLEWIGNVYPRSSSPNYNEKFKGKATLTVDTSSSTAYMQLSSLTSDDSAVYFCARGYGSYWYFDVWGAGTSVTVSS
VL: DIQMTQSSSSFSVSLGDRVTITCKASEDIYNRLAWYQQKPGNAPRLLISGATTLETGVPSRFSGSGSGKDYALSITSLQTEDVSTYYCQEYWSLSPTFGGGTKLEIKR
B10: SCT-Pa01 (antibody, mouse IgG1, kappa, V domains shown)
VH: QVTLKESGPGILQPSQTLSLTCSFDGFSLSTFGMGVGWIRQPSGRGLEWLAHIWWDDDKNYKPALKSRLTISKDTSKNQVFLKIANVDTADTATYYCTRMREDSSDYVYYIMDYWGQGTSVIVAS
VL: QIVLTQSPSIMSASPGEKVTISCSASSSVSYMYWYQQKPGSSPRPWIYRTSNLASGVPARFSGSGSGTSYSLTITSMEAEDAATYYCQLYHSYPPTWTFGGGTKLEIKR
B11: SCT-Pa04 (antibody, mouse IgG1, kappa, V domains shown)
VH: EVQLQQSGPELVKPGASVKMSCKASGYSFTSYVMHWVKQKPGQGLEWIGYINPYNDGTKYNEKFKGKATLTSDKSSSTAFMDLSSLTSDDSAVYYCSRDDYSNPPFAYWGQGTLVTVSA
VL: SIVMTQTPKFLLVSAGDRITITCKASQSVSNNVAWYQQKPGQSPTLLISYASNRFTGVPDRFTGSGYGTDFTFTISIVQAEDLAVYFCQQDYDSPYTFGGGTKLEIKR
B12: SCT-Pa09 (antibody, mouse IgG1, kappa, V domains shown)
VH: QVQLQQPGAELVKPGTSVRLSCQASGYTFTSSWIHWVKQRTGQGLEWIGEISLTNGDINYNEKFTSKATLTVDKSSSTAYMQLSSLTSEDSAVYYCTIIPDGYSLYWYFDVWGAGTTVTVSS
VL: QIVLSQSPPILSASPGARVTMTCRASSSVNYMHWYQQKPGSSPKPWIYATSNLASGVPVRFSGSGSGTSYSLTISRVEAEDAATYYCQQWSSNPPTFGGGTKLEIKR
B13: SCT-Pa03 (antibody, mouse IgG1, kappa, V domains shown)
VH: QVQLKQSGAELVRPGASVKLSCKASGYTFTDYYINWVKQRPGQGLEWIARIYPGNNYAYYDEKFKGKATLTAEKSSSTAYMQLSSLTSEDSAVYFCAKDDGYRFAYWGQGTLVTVSA
VL: DIQMTQSSSYLSVSLGGRVTITCKASDHINNWLAWYQQKPGNAPRLLISGATSLETGVPSRFSGSGSGKDYTLSITSLQTEDVATYYCQQYWSTPPTFGGGTKLEIKR
B14: SCT-Pa10 (antibody, mouse IgG1, kappa, V domains shown)
VH: QVQLQQSGPELVKPGASVKISCKASGYAFSTSWMNWMKQRPGKGLEWIGRIYPGDGETNYNGKFKGKATLTADKSSSTAYMQLSSLTSDDSAVYFCARGANGDYLFYLDYWGQGTTLTVSS
VL: DIQMTQTTSSLSASLGDRVTISCSASQDISDFLNWYQQKPDGTVKLLIYYTSSLHSGVPSRFSGSGSGTDYSLTINNLEPEDIATYYCQQYSKLPYTFGGGTKLEIRR
B15: SCT-Pa12 (antibody, mouse IgG1, kappa, V domains shown)
VH: QVQLQQSGAELARPGASVKLSCKASGYSFTSYGISWVKQRTGQGLEWIGDIYPRSGNTDYNEKFKGKATLTADKSSSTANMQLSSLTSEDSAIYFCARSGDGYLYAMDYWGQGTSVTVSS
VL: DIQMTQTTSSLSASLGDRVTISCRASQDISNYLNWYQQKPDGTVKLLIYYTSRLHSGVPSRFSGSGSGTDYSLTISNLEPEDIAPYYCQQYSKLPYTFGSGTKLEIKR
B16: SCT-Pa18 (antibody, mouse IgG1, kappa, V domains shown)
VH: QVQLQQPGAELVKPGASVKLSCKASGYTFTSYWMQWVKQRPGQGLEWIGEIAPSDSYTNYNQKFKGKATLTVDTSSSTAYMQLSSLTSEDSAVYYCAGGDYYGYDVKTWFAYWGQGTLVTVSA
VL: DIQMTQTTSSLSASLGDRVTISCSASQDISNYLNWYQQKPDGTVKLLIYYTSSLHSGVPSRFSGSGSGTGYSLTISNLEPEDIATYYCQQYSKLPYTFGGGTKLEIKR
B17: SCT-Pa20 (antibody, mouse IgG1, kappa, V domains shown)
VH: QVQLQQPGAELVKPGASVKLSCKASGYTFTDYWINWVKQRPGQGLEWIGNIYPGSSDTNYNEKFKRKATLTVDTSSSTAYMQLSSLTSDDSAVYYCARRPLFHAMDYWGQGTSVTVSS
VL: DIVLTQSPASLAVTLGQRATISCKASQSINYNGDNYMHWFQQKPGQPTKLLIYTASNLESGVPDRFSGSGSGTDFTLNIHPVEEEDAATYYCQQSKEFPWTFGGGTKLEIKR
B18: SCT-Pa15 (antibody, mouse IgG1, kappa, V domains shown)
VH: QVQVKQSGPGLVQPSQSLSITCTVSGFSSTSYAIHWVRQSPGKGLEWLGVIWSGGTTDYNAAFISRLSFSKDNSKSQLFFKMNSLQADDTAMYYCARGNYYGMDYWGQGTSVTVSS
VL: DIVVTQSPASLAVSLGQRATISCRASESIDYDGDSYVNWYQQKPGQPPNLLIYAASNLESGIPARFSGGGSGTDFTLTIHPVEEEDAATYYCLQSYETPWTFGGGTKLEIKR
B19: SCT-Pa05 (antibody, mouse IgG1, kappa, V domains shown)
VH: EVQLQQSGAELVKPGASVKLSCTTSGFNIKDYYFHWVKQRTEQGLEWIGRIDPEDGETEYAPKFRDKATITADTSSNTAYLQLSSLTSEDTAIYYCARSLYYWGQGTTLTVSS
VL: DIVMTQSPSSLSVWAGEKVTMSCKSSQSLLNSGDQKNYLTWYQQKPGQSPKLLIYETSTRDYGVPDRFTGSGSGADFTLTISSVQAEDLAVYYCLNDLTYPLTFGAGTKLELKR

These binders were tested against T1, Recombinant SARS-CoV-2 N protein His tagged (SARS-CoV-2, UniProt P0DTC9 1-419) (assay: BLI (Octet Red 96E), mAb on anti-mouse Fc biosensor, N protein in solution, global 1:1 fit).
T1 construct: also called nucleocapsid (N) protein; recombinant HIS tagged SARS-CoV-2 N protein

**Q.** For B1, which Kd is on record?
**A.** 28.3 pM

**Q.** And the koff?
**A.** 1.26e-05 s⁻¹

**Q.** And the kon?
**A.** 444000 M⁻¹ s⁻¹

**Q.** How did the Kd turn out when B2 was run?
**A.** 1490 pM

**Q.** What about the koff of the same binder?
**A.** 0.00154 s⁻¹

**Q.** What about the kon of the same binder?
**A.** 1.04e+06 M⁻¹ s⁻¹

**Q.** What does the source list for B3?
**A.** Kd: 188 pM; koff: 8.63e-05 s⁻¹; kon: 458000 M⁻¹ s⁻¹

**Q.** Which results are given for B4?
**A.** Kd: 128 pM; koff: 7.23e-05 s⁻¹; kon: 566000 M⁻¹ s⁻¹

**Q.** What does the source list for B5?
**A.** Kd: 1000 pM; koff: 0.00073 s⁻¹; kon: 730000 M⁻¹ s⁻¹

**Q.** B6 was tested. Which Kd did it give?
**A.** 111 pM

**Q.** And the koff?
**A.** 5.75e-05 s⁻¹

**Q.** What about the kon of the same binder?
**A.** 517000 M⁻¹ s⁻¹

**Q.** What does the source list for B7?
**A.** Kd: 897 pM; koff: 0.000772 s⁻¹; kon: 860000 M⁻¹ s⁻¹

**Q.** Which Kd does the source give for B8 here?
**A.** 504 pM

**Q.** What about the koff of the same binder?
**A.** 0.00017 s⁻¹

**Q.** And the kon?
**A.** 337000 M⁻¹ s⁻¹

**Q.** Which Kd does the source give for B9 here?
**A.** 939 pM

**Q.** What about the koff of the same binder?
**A.** 0.000461 s⁻¹

**Q.** What about the kon of the same binder?
**A.** 491000 M⁻¹ s⁻¹

**Q.** B10 was tested. Which Kd did it give?
**A.** 181 pM

**Q.** And the koff?
**A.** 8.01e-05 s⁻¹

**Q.** And the kon?
**A.** 442000 M⁻¹ s⁻¹

**Q.** Which Kd does the source give for B11 here?
**A.** 32.8 pM

**Q.** And the koff?
**A.** 1.64e-05 s⁻¹

**Q.** And the kon?
**A.** 498000 M⁻¹ s⁻¹

**Q.** For B12, which Kd is on record?
**A.** 53.1 pM

**Q.** And the koff?
**A.** 2.67e-05 s⁻¹

**Q.** What about the kon of the same binder?
**A.** 503000 M⁻¹ s⁻¹

**Q.** What does the source list for B13?
**A.** Kd: 2780 pM; koff: 0.000597 s⁻¹; kon: 215000 M⁻¹ s⁻¹

**Q.** With B14 as the binder, how does the Kd read?
**A.** 335 pM

**Q.** And the koff?
**A.** 0.000247 s⁻¹

**Q.** What about the kon of the same binder?
**A.** 738000 M⁻¹ s⁻¹

**Q.** How did the Kd turn out when B15 was run?
**A.** 649 pM

**Q.** What about the koff of the same binder?
**A.** 0.000278 s⁻¹

**Q.** What about the kon of the same binder?
**A.** 428000 M⁻¹ s⁻¹

**Q.** B16 was tested. Which Kd did it give?
**A.** 228 pM

**Q.** What about the koff of the same binder?
**A.** 0.000127 s⁻¹

**Q.** And the kon?
**A.** 557000 M⁻¹ s⁻¹

**Q.** What does the source list for B17?
**A.** Kd: 5.37 pM; koff: 3.09e-06 s⁻¹; kon: 576000 M⁻¹ s⁻¹

**Q.** For B18, which Kd is on record?
**A.** 994 pM

**Q.** What about the koff of the same binder?
**A.** 0.000862 s⁻¹

**Q.** What about the kon of the same binder?
**A.** 868000 M⁻¹ s⁻¹

**Q.** What does the source list for B19?
**A.** Kd: 289 pM; koff: 0.00018 s⁻¹; kon: 624000 M⁻¹ s⁻¹
